Literature values as cited in PMC6540150.

Target: SOUL BH3 (Homo sapiens) (UniProt Q9Y5Z4)

Kd: 40 µM
Substance: Bcl-xL (from UniProt Q07817)
